B1: PGT151 Fab (Fab, V domains shown)
VH: RVQLVESGGGVVQPGKSVRLSCVVSDFPFSKYPMYWVRQAPGKGLEWVAAISGDAWHVVYSNSVQGRFLVSRDNVKNTLYLEMNSLKIEDTAVYRCARMFQESGPPRLDRWSGRNYYYYSGMDVWGQGTTVTVSS
VL: DIVMTQTPLSLSVTPGQPASISCKSSESLRQSNGKTSLYWYRQKPGQSPQLLVFEVSNRFSGVSDRFVGSGSGTDFTLRISRVEAEDVGFYYCMQSKDFPLTFGGGTKVDLKR
B2: PGT145 (antibody, V domains shown)
VH: QVQLVQSGAEVKKPGSSVKVSCKASGNSFSNHDVHWVRQATGQGLEWMGWMSHEGDKTGLAQKFQGRVTITRDSGASTVYMELRGLTADDTAIYYCLTGSKHRLRDYFLYNEYGPNYEEWGDYLATLDVWGHGTAVTVSS
VL: EVVITQSPLFLPVTPGEAASLSCKCSHSLQHSTGANYLAWYLQRPGQTPRLLIHLATHRASGVPDRFSGSGSGTDFTLKISRVESDDVGTYYCMQGLHSPWTFGQGTKVEIKR

Legend:
MD39-10MUT = experiment: SPR, trimer ligand, Fab analyte (1-to-1 fit relatively poor) [panel A]
BG505 MD53 = experiment: SPR (ligand and analyte not given)
AC10 Olio6 = experiment: SPR (ligand and analyte not given)

Binder	Kd (MD39-10MUT) [nM]	Kd (BG505 MD53) [nM]	Kd (AC10 Olio6) [nM]
B1	35		
B2		22	53
